Laboratory results from the supplement of paper PMC9170038.

System: K4 kissing-loop RNA reporter
Experiment: apparent KD of K4 kissing-loop reporter; higher = weaker reporter binding
Conditions: Eterna round: R107
Procedure: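 RNA-MaP round R107: designed RNA switches with theophylline, tryptophan, arginine or FMN aptamers are transcribed on-chip within common flanks. They are titrated with a labelled K4 kissing-loop RNA reporter in RNA-MaP buffer (100 mM Tris pH 7.5, 80 mM KCl, 4 mM MgCl2), without ligand or with the indicated ligand. Median apparent KD per design.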

[1] = input ligand: theophylline 20 uM
[2] = input ligand: tryptophan 2.4 mM
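Further: bound reporter read as fluorescence of individual clusters on recovered sequencing chips by microscopy, with normalized cluster intensities fitted with a binding model.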

Row | Sequence | apparent KD of K4 kissing-loop reporter (input ligand: FMN 200 uM) [nM] | apparent KD of K4 kissing-loop reporter (input ligand: arginine 13.2 mM) [nM] | apparent KD of K4 kissing-loop reporter (input ligand: none) [nM] | apparent KD of K4 kissing-loop reporter [1] [nM] | apparent KD of K4 kissing-loop reporter [2] [nM]
1 | UCCUGCAAUCUGCCACGAAAGUGGAUUGAUACCAGAGUCGAAAGACUCCCUUGGCAGCGAGUGAUGUUCGAAGCAGGUAAAUAAA | 99.4 | 149 | 124 | 160 | 91.7
2 | UCGAGUGAUGUUCGAUUUCAGUGAAGAGAUACCAGCCGCAGUGUAGGCCCUUGGCAGCUCGGCUAUUAUGACAUAUGCAGUUUAG [theeternabot_sameState_KL_Theo_A_29] | 125 | 121 | 119 | 122 | 80
3 | UCGCAAGAAUCACUGUGGAGGACCUUGGCCAAGGAUAUCAAAGGAUUGAGAAGGUGGCGCCAAGUGAUGUUUGGAUGCCGGGCAG [theeternabot_exclusion_KL_FMN_A_36] | 149 | 286 | 293 | 183 | 256
4 | UCGCAUUAACCGGAUACCAGCUUAGUGGGAUCUUCAAUCCGACAGAAAGUGAUGUUUUCUAGCCCUUGGCAGCCGAGAUUAUCAC [theeternabot_sameState_KL_Theo_B_50] | 231 | 333 | 331 | 412 | 348
5 | UCGCCCGAUGGAGAUACCAGCAGUUGUGCAGUGAUGUUGCACAAGUACUCGCUCCAUUGCUGCCCUUGGCAGCUCCCGGCAAACA [Enraed] | 93.3 | 85 | 87.6 | 82.8 | 89.3
6 | UCGCCGCUCACGGCCGCCACUAAGCCCAAGACCAGAGAGUGAUGUUCUAUCCACGUUUCAAUUUUUAGGACCGGGUGAAAGGCGA [theeternabot_sameState_KL_Trp_B_14] | 779 | 411 | 729 | 625 | 618
7 | UCGGCGGAGUGAUGUUCCUAUGUCCAAGAUACCAGUCUAUGAACGGACCCUUGGCAGCUUCCAUUAGGUUACUAUUUAGACUCAU [theeternabot_exclusion_KL_Theo_A_10] | 190 | 227 | 215 | 248 | 166
8 | UCUCCAAAGUCGGCCGCCACUCCGGGCCCUAUAAAUGGGCGCAGUGAUGUUGCGGCUAGGCCUCUGAGGACCGGGACUUUGUAGA [Estiorquin] | 75.5 | 55.7 | 31.3 | 129 | 164
9 | UCUGAAUUAUCUGAUACCAGACUUUUUGUAUUUAUUAAAACUAGUGAUGUUAGUUUAUCUGUCCCUUGGCAGCAGUUUCUACAGA [JR_Nu_ExcTheophyB_Sub022] | 79.9 | 95.4 | 83.8 | 90.8 | 72.5
10 | UCUGGAGUAUAUGAUACCAGCAGUGAGAGACAGGAAGUAUAGUGAUGUUAUAUGAGAGAAUGCCCUUGGCAGCGUGUGCGGUGGC [SSTheophylB.Q] | 118 | 77.8 | 61.6 | 81.4 | 58.3
11 | UGACAUUGCUCAGAUACCAGACCUGAGGAACACCCAGGUGCCAAAACGUACUAAAUAAAGGUCCCUUGGCAGCUGAGCAAUGUCU [TheoBX 13] | 45.7 | 35.1 | 35.4 | 77.6 | 59.7
12 | UGACUACAAGGAAAAUAAUCCUAGUGAUGUUAGGAUAUGCUGAUAAGCAGAAGGAACUGAGAUCGAAAGAUCUCAAAUGUAGUCU [FmnAX 27 Mat Inspired #SwitchBubble #StaticStem #K4Early] | 121 | 92 | 87.2 | 102 | 93.5
13 | UGACUACAUAAGGAUUAAUCCUAGUGAUGUUAGGAUAUGCUGAUAAGCAGAAGGAACGGAGAUCGAAGGAUCUCAUAUGUAGUCU [whbob_Ex_FMNA__2th195] | 457 | 135 | 164 | 138 | 164
14 | UGACUGGACUGAAGGAGCGCGCGAGACAAAGUCUCGAACUGCUAGUGAUGUUAGCGAAUAACGCAGGUAGGUCGCAGUCUAGUCU [ArgBS 14 #SwitchBubble #StaticStem] | 177 | 146 | 175 | 155 | 156
15 | UGACUGGACUGAAGGAGCGGGCGAGACAAAGUCUCGAACUCGUAGUGAUGUUAUGAAAUAACCCAGGUAGGUCGCAGUCUAGUCU | 1130 | 684 | 892 | 868 | 789
16 | UGACUGGAUGGAAGGAGCGCUAAACUCCUAGUGAUGUUAGGGACAUGAGGCACAGCCUUGAAGCAGGUAGGUCGCCAUCUAGUCU [FiskerMod 28 - Jieux - Same State - Arginine B] | 197 | 135 | 176 | 166 | 174
17 | UGACUGGAUGGAAGGAGCGCUAAACUCCUAGUGAUGUUAGGGACAUGAGGCAUAGCCUUGAAGCAGGUAGGUCGCCAUCUAGUCU [FiskerMod 29 - Jieux - Same State - Arginine B] | 193 | 132 | 184 | 189 | 144
18 | UGAGGGAUCUCGGCCGCCACUCGUGGGAAAUGGGCCUCAGGGAUAUAGUGAUGUUAUGUAAAGAAGAGGACCGGGAGAAGGAAGG [ExTryptoB.Dh] | 230 | 229 | 320 | 386 | 203
19 | UGAUACCAGACGGCCGCCACUGCACCAGUCAAUGACUGAGUGCGGUAGUGCUCAGUGAUGUUGAGUAGGACCGGGUCUGGUAUCU [Mod of Eli's TrypBX 8 v3] | 148 | 124 | 131 | 130 | 130
20 | UGAUACCAGACUGAUACCAGCGAGUGAUGUUUGUUGAUCAUAAGCAGUCAAAGACUGCUUUGCCCUUGGCAGCAGUCUGGUAUCU [#11 K4 Theophylline B Exclusion] | 871 | 565 | 838 | 334 | 600
21 | UGAUACCAGACUGAUACCAGCUAGUGAUGUUAGCUGAAAUCAGGGUCAAAGACCCUGUCUAGCCCUUGGCAGCAGUCUGGUAUCU [TheoBX 9 #SwitchBubble #StaticStem] | 107 | 93.8 | 98.3 | 133 | 91.5
